Laboratory results published in US20090297535A1 (Ablynx, published 2009).

B1: PMP20D2 (VHH)
VHH: AVQLVESGGGLVQPGGSLRLSCAASGSISRFNIMGWYRQAPGKQRELVADITNRGTTNYADSVKGRFTISRDNTKNTVYLQMNSLKPDDTAVYYCHTYYPTTGFDDWGQGTQVTVSS
notes: Monovalent Nanobody
B2: PMP21C2 (VHH)
VHH: QVQLVESGGGLVQPGGSLRLSCAASEYITSINPMAWYRQAPGKQRDLVARIFGGGSTNYADSVKGRFTISRDIAKNTVSLQMNSLKPEDTAVYYCNARRWGYDYWGQGTQVTVSS
notes: Monovalent Nanobody
B3: NC6 (VHH)
VHH: EVQLVESGGGLVQAGGSLRLSCAASGPTFSSYAMGWFRQAPGKDREFVAAISSNGGSTRYADSVKGRFTISRDSAKNTAYLQMNSLKLEDTAVYYCAADETTGWVQLADFRSWGQGTQVTVSS
notes: Monovalent Nanobody
B4: PMP21E12 (VHH)
VHH: AVQLVESGGGLVQPGGSLRLSCAASGSITSINPMGWYRQAPGKQRELVARIHGSITNYADSVKGRFTISRDIAKNTVYLQMNSLKPEDTAVYYCNARRWGYDYWGQGAQVTVSS
notes: Monovalent Nanobody
B5: PMP21C12 (VHH)
VHH: AVQLVESGGGLVQPGGSLRLSCAASGSITGINPMGWYRQAPGKQRELVARIHGSITNYADSVKGRFTISRDIAKNTAYLQMNSLKPEDTAVYYCNARRWGYDYWGQGAQVTVSS
notes: Monovalent Nanobody
B6: PMP6D5 (VHH)
VHH: QVQLVESGGGLVQAGGSLRLSCAASGRTFSPYTMGWFRQPPGKVREFVGRINWSGIRNYADSVKGRFTISRDNNNNTVYLQMNRLKPEDTAVYYCAAASQSGSGYDSWGQGTQVTVSS
B7: PMP13A1 (VHH)
VHH: AVQLVDSGGGLVQAGGSLRLSCAASGRTFSPYTMGWFRQPPGKVREFVGRINWSGIRNYADSVKGRFTISRDNNNNTVYLQMNRLKPEDTAVYYCAAASQSGSGYDSWGQGTQVTVSS
notes: Monovalent Nanobody
B8: PMP20F4 (VHH)
VHH: QVQLVESGGGLVQAGGSLRLSCAASGRTFSPYTMGWFRQPPGKVREFVGRINWSGIRNYADSVKGRFTISRDNNNNTVYLQMNRLKPEDTAVYYCAAASRSGSGYDSWGQGTQVTVSS
notes: Monovalent Nanobody
B9: PMP20G9 (VHH)
VHH: QVQLVESGGGLVQAGGSLRLSCAASGRTFSPYTVGWFRQPPGKVREFVGRINWSGIRNYADSVKGRFTISRDNNNNTVYLQMNRLKPEDTAVYYCAAASQSGSGYDSWGQGTQVTVSS
notes: Monovalent Nanobody
B10: PMP13D8 (VHH)
VHH: QVKLEESGGGLVQAGSSLRLSCAASGRTSSPYTMGWFRQPPGKVREFVGRINWSGITNYADSVKGRFTISRDNNKNTVYLQMNRLKPEDTAVYYCASASQVGSGYDSWGQGTQVTVSS
notes: Monovalent Nanobody
B11: PMP21A7 (VHH)
VHH: AVQLVESGGGLVQAGSSLRLSCAASGRTFSPYTMGWFRQPPGKVREFVGRINWSGITNYADSVKGRFTISRDNNKNTVYLQMNRLKPEDTAVYYCAAASRSGSGYDSWGQGTQVTVSS
notes: Monovalent Nanobody
B12: PMP6G10 (VHH)
VHH: QVQLVESGGGLAQAGGSLRLSCVVSGRTFSPYTIGWFSQRPGKEREWVATIIGSDRSTDLDGDTYYADSVRGRFTISRNDAKNTVSLQMNSLKPEDSAVYYCALTAKGYVFTDNEYDYWGQGTQVTVSS
notes: Monovalent Nanobody
B13: PMP14G4 (VHH)
VHH: AVQLVDSGGGLVQAGGSLRLSCAASGRTFSSYPMGWFRQGPGKERKFVAGISQSGVGTAYSDSVKGRFTISRENAKNTVYLQMNSLKPEDTAVYYCAARDKTLALRDYAYTTDVGYDDWGQGTQVTVSS
notes: Monovalent Nanobody
B14: PMP23H2 (VHH)
VHH: AVQLVDSGGGLVQPGGSLRLSCAASGSIFSRLAMDWYRQAPGKQRELVASIAVSGTTMLDDSVKGRFTISRDNAENTVYLQMNSLKPEDTAVYYCMAFDGYTGSDYWGRGTQVTVSS
notes: Monovalent Nanobody
B15: PMP6B7 (VHH)
VHH: QVQLVESGGGLVQAGGSLRLSCAASGGTFSAFPMGWFRQAPGKERKFVAGISQSGGSTHYSDSVKGRFTISRENAKNTVYLQMNSLKPEDTAVYYCAARGRTLALRNYAYTTEVGYDDWGQGTQVTVSS
notes: Monovalent Nanobody
B16: PMP14A8 (VHH)
VHH: EVQLVESGGGLVQAGGSLRLSCAASGGTFSSFPMGWFRQAPGKERKFVAGISQSGGSTHYSDSVKGRFTISRENAKNTVYLQMNNLKPEDTAVYYCAARGRTLALRNYAYTTEVGYDDWGQGTQVTVSS
notes: Monovalent Nanobody
B17: PMP14E1 (VHH)
VHH: QVQLVESGGGLVQAGGSLRLSCAASGRTFSSYPMGWFRQAPGKERKFVAGISQSGGSTAYSDSVKGRFTISRENAKSTVYLQMNSLKPEDTAVYYCAARDKTLALRDYAYTTDVGYDDWGQGTQVTVSS
notes: Monovalent Nanobody
B18: PMP12C5 (VHH)
VHH: DVQLVESGGGLVQAGGSLRLSCAASGGTFTSYPMGWFRQAPGKERKFVAGISQSGGSTAYSDSVKGRFTISRENAKTTVYLQMNSLKPEDTAVYYCAARGRTLFLRGYAYTTEVGYDDWGQGTQVTVSS
notes: Monovalent Nanobody
B19: PMP14G1 (VHH)
VHH: QVKLEESGGGLVQAGGSLRLSCAASGGTFSAFPMGWFRQAPGKEREFVAGISQSGGSTHYSDSVKGRFTISKENAKNTVYLQMNSLKPEDTAVYYCAARGGTLALRNYAYTTEVGYDDWGQGTQVTVSS
notes: Monovalent Nanobody
B20: PMP14G11 (VHH)
VHH: QVQLVESGGGLVQAGGSLRLSCAASGGTFSSFPMGWFRQAPGKGREFVAGISQSGGSTHYSDSVKGRFTISRENAKNTVYLQMNSLKPEDTAVYYCAARGRTLALRNYAYTTEVGYDDWGQGTQVTVSS
notes: Monovalent Nanobody
B21: PMP17D7 (VHH)
VHH: AVQLVDSGGGLVQAGGSLRLSCAASGGTFSAFPMGWFRQAPGKEREFVAGISQSGGSTHYSDSVKGRFTISKENAKNTVYLQMNSLKPEDTAVYYCAARGRTLALRNYAYTTEVGYDDWGQGTQVTVSS
notes: Monovalent Nanobody
B22: PMP12H3 (VHH)
VHH: AVQLVDSGGGLVQAGGSLRLSCAASGGTFTSYPMGWFRQAPGKERKFVAGISQSGGSTAYSDSVKGRFTISRENAKTTVYLQMNSLKPEDTAVYYCAARGRTLFLRDYAYTTEVGYDDWGQGTQVTVSS
notes: Monovalent Nanobody
B23: PMP17G7 (VHH)
VHH: QVKLEESGGGLVQAGGSLRLSCAASGGTFSSYPMGWFRQAPGKEREFVTGISQSGGSTAYSDSVKGRFTISRENAKNTVYLQMNSLKPEDTAVYYCAARGRTIALRNYAYTTEVGYDDWGQGTQVTVSS
notes: Monovalent Nanobody
B24: PMP17B5 (VHH)
VHH: QVQLVESGGGLVQAGGSLRLSCAASGGTFSAFPMGWFRQAPGKERKFVAGISQSGGSTHYSDSVKGRFTISRENAKNTIYLQMNSLKPEDTAVYYCAARGRTLALRNYAYTTEVGYDDWGQGTQVTVSS
notes: Monovalent Nanobody
B25: PMP6E9 (VHH)
VHH: EVQLVESGGGLVQAGGSLRLSCAASGRTFSSYPMGWFRQAPGKERKFVAGISQSSSSTAYSDSVKGRFTISRENAKNTVYLQMNSLKPEDTAVYYCAARGRTLALRDYAYTTEVGYDDWGQGTQVTVSS
notes: Monovalent Nanobody
B26: PMP9F9 (VHH)
VHH: AVQLVESGGGLVQAGGSLRLSCAASGGTFSSFPMGWFRQAPGEKREFVAGISQSGGSTHYSDSVKGRFTISRENARNTVYLQMNSLKPEDTAVYYCAARGRTLALRNYAYTTEVGYDDWGQGTQVTVSS
notes: Monovalent Nanobody
B27: PMP14E9 (VHH)
VHH: AVQLVESGGGLVQAGGSLRLSCAASGGTFSAFPMGWFRQAPGKEREFVAGISQSGGSTHYSDSVKGRFTISKENAKSTVYLQMNSLKPEDTAVYYCAARGRTLALRNYAYTTEVGYDDWGQGTQVTVSS
notes: Monovalent Nanobody
B28: PMP13H6 (VHH)
VHH: QVKLEESGGGLVQAGGSLRLSCASSGRTFSSYVMGWFRQTPGKEREFVSTINWSGSNKYYADSVKGRFTISRDNAKNTVYLQMNSLKPEDTAVYYCAASAGGFLVPRVGQGYDYWGQGTQVTVSS
notes: Monovalent Nanobody
B29: PMP7H3 (VHH)
VHH: DVQLVESGGGLVQPGGSLRLSCAASGFTLDYYGVGWFRQAPGKEREGVSCISSSDGDTYYADSVKGRFTISRDNAKNTVYLQMNSLKPEDTAVYYCATDLSDYGVCSRWPSPYDYWGQGTQVTVSS
notes: Monovalent Nanobody
B30: PMP22E3 (VHH)
VHH: QVQLVESGGGLVQPGGSLRLSCAASGFTLDDSAIGWFRQAPGKEREGVSCISSSDGDTYYDDSVKGRFTISRDNVKNMVYLQMNSLKPEDTAVYFCAIDLSDYGVCSKWPSPYDYWGQGTQVTVSS
notes: Monovalent Nanobody
B31: PMP9A9 (VHH)
VHH: QVQLVESGGGLVQPGGSLRLSCAASGFSLDYYGVGWFRQAPGKEREGVSCTSSSDGDTYYADSVKGRFTISRDNAKNTVYLQMNSLKPEDTAVYYCATDLSDYGVCSRWPSPYDYWGQGTQVTVSS
notes: Monovalent Nanobody
B32: NC3 (VHH)
VHH: EVQLVESGGGLVQPGGSLRLSCAASGNIAAINVMNWYRQAPGTQREFVAAITSGGRKNYADSVKGRFTISRDNAKNTVHLQMNSLKPEDTAVYYCNADAPLASDDDVAPADYWGQGTQVTVSS
notes: Monovalent Nanobody

Molecular target: T1, recombinant human IL6 (human, UniProt P05231 30-212)
T1 construct: Amine-coupled to a CM5 chip in the Biacore assay; used biotinylated in the Alphascreen assays; also called interleukin-6; biotinylated human IL6
Experiment: SPR, Biacore 3000; IL6 amine-coupled on CM5 chip, periplasmic extract injected
Procedure: Off-rate analysis of Nanobodies binding to IL6 was done by surface plasmon resonance on a Biacore 3000 instrument. Recombinant human IL6 was covalently bound to a CM5 sensor chip via amine coupling at a density of ˜500 RU. Remaining reactive groups were inactivated. Periplasmic extracts prepared from E. coli cells expressing anti-IL6 Nanobodies were diluted 10 or 15-fold and injected for 4 min to allow for binding to IL6 immobilized on the chip. Buffer without Nanobody was sent over the chip for 30 min to allow for spontaneous dissociation of bound Nanobody. The dissociation phase was used to calculate the koff values for each individual Nanobody (table B-1).

Binder | koff [s⁻¹]
B1 | 0.000243
B2 | 0.00116
B3 | 0.00082
B4 | 0.00222
B5 | 0.000897
B6 | 0.000511
B7 | 0.000396
B8 | 0.000195
B9 | 0.000318
B10 | 0.000251
B11 | 0.000526
B12 | 0.000433
B13 | 0.000312
B14 | 0.0016
B15 | 0.000199
B16 | 0.000131

Binder | koff [s⁻¹]
B17 | 0.00057
B18 | 0.000211
B19 | 0.00079
B20 | 0.000229
B21 | 0.00116
B22 | 0.000243
B23 | 0.000669
B24 | 0.00015
B25 | 0.000631
B26 | 0.00019
B27 | 0.000531
B28 | 0.00189
B29 | 0.00309
B30 | 0.00519
B31 | 0.00605
B32 | 0.00056
